Patent US20240076371A1, “COMPOSITIONS AND METHODS FOR TREATING OSTEOARTHRITIS, RHEUMATOID ARTHRITIS, AND JOINT AND TENDON DISORDERS” (BOARD OF REGENTS, THE UNIVERSITY OF TEXAS SYSTEM, priority 2021, published 2024)

What was measured:
[1] = target: T1, Cx43 hemichannels in human synovial fibroblast SW982 cells (Homo sapiens, UniProt P17302); assay: EtBr dye uptake assay in IL1β-treated SW982 cells; assay type: cell-based
T1 construct: endogenous in cells; host or cells: SW982 (human synovial fibroblast), IL1β-treated
T1 sequence (P17302 whole entry): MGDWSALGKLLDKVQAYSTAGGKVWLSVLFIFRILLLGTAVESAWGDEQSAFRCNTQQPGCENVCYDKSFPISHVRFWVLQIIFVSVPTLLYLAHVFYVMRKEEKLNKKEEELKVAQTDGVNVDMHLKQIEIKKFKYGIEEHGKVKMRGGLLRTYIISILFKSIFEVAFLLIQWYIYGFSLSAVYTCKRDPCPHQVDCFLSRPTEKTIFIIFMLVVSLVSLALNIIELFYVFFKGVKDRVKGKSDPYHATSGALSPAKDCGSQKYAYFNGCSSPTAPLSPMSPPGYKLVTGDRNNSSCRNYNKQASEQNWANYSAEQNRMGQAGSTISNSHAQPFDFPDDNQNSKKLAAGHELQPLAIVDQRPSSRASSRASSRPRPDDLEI
Procedure: (§1) Dye uptake assay. Cells were incubated with a mixture of 0.1 mM ethidium bromide (EtBr, MW 394 Da) and 1 mg/ml FITC-dextran (MW 10 kDa) for 5 minutes. EtBr was used as a tracer to detect hemichannel activity, and FITC-dextran, which is too large to pass through hemichannels but is taken up by dying cells, was used as a negative control. Cells were then rinsed five times with PBS, followed by fixing with 2% paraformaldehyde for 10 minutes. At least six microphotographs of fluorescence fields were captured under a 20× fluorescent microscope (Keyence, BZ-X710, Osaka, Japan). For each image, the average intensity of EtBr fluorescence was measured and quantified from at least 30 random cells using ImageJ software (NIH, Bethesda, USA). […]
(§2) Anti-Cx43 hemichannel antibody (M1 antibody) blocked Cx43 hemichannel opening and inflammatory gene expression in RAW264.7 and SW982 cells. […] The activity of Cx43 hemichannels was determined using EtBr dye uptake assay. […] Next, MMP3/13, Cyclooxygenase 2 (COX2), ADAM metallopeptidase with thrombospondin type 1 motif 4 (Adamts4), and IL6 gene expression was determined with or without Cx43E2 antibody after LPS treatment of RAW264.7 cells (FIG. 18). […] In addition, MMP3/13, COX2, Adamts4/5, and Nitric Oxide Synthase 2 (NOS2) gene expression was evaluated in IL1β-treated SW982 cells (FIG. 19).

[2] = target: T2, Cx43 hemichannels in mouse macrophage RAW264.7 cells (Mus musculus, UniProt P23242); assay: EtBr dye uptake assay in LPS-treated RAW264.7 cells; assay type: cell-based
T2 construct: endogenous in cells; host or cells: RAW264.7 (mouse macrophage), LPS-treated
T2 sequence (P23242 whole entry): as the sequence (P17302 whole entry) above, with D124E, I164V, K243R, S251T, A253P, A257S, Q263P, N341S, S344A, L347V counted along it
Procedure: as §1, §2

[3] = target: T3, Connexin 43 (Cx43) hemichannel, mouse (mouse, UniProt P23242 2-382); assay: in vivo binding after i.p. injection; frozen knee sections stained with Alexa Fluor 594 anti-human IgG
T3 construct: whole, on cells; also called Cx43 HCs
T3 sequence (P23242 2-382): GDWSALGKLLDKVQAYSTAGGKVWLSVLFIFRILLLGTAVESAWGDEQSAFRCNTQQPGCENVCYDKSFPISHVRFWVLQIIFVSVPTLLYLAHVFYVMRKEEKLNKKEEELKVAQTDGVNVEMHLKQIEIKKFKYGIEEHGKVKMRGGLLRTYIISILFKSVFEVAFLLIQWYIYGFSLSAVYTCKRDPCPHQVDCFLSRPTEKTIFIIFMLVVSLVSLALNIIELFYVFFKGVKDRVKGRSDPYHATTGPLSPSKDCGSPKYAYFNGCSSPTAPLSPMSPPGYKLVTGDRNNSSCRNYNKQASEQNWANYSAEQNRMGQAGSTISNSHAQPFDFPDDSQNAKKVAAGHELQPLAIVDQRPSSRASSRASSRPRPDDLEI
Procedure: M1 antibody binds to synovium and inhibits hemichannel opening in OA. Due to the dense nature of cartilage and large size of antibodies, a widely held perception is that antibodies are unable to penetrate the cartilage matrix. To determine the antibody binding pattern in the knee joint region, M1 antibody (25 mg/kg) with human IgG epitope or saline was intraperitoneally (i.p.) injected at 30 mins after DMM surgery. As shown in the diagram (FIG. 8A), mice were euthanized and perfused before isolation of hindlimbs at one or two weeks after injection. Frozen tissue sections were prepared and immuno-labeled with Alexa Fluor 594-conjugated anti-human IgG secondary antibody. The signal was detectable at both one and two weeks after antibody administration, with the antibody binding site primarily localized in the synovium region (FIG. 8B). The synovium of joints comprises macrophage-like type A cells, which are responsible for phagocytosing synovial fluid, and fibroblast-like type B cells, which produce hyaluronic acid and mucin to nourish and mechanically protect, respectively, the underlying articular cartilage (Donahue H J, et al. Nature reviews Rheumatology. 2017; 14(1):42-51). Then the sections were immuno-labeled with the macrophage marker CD68, and the M1 antibody was co-localized with CD68 in the synovium region (FIG. 9). […]

[4] = tested on: LPS-induced inflammatory gene expression in RAW264.7 cells; assay: qRT-PCR of LPS-induced inflammatory gene expression in RAW264.7 cells; assay type: cell-based, mouse; conditions: pre-incubated 30 min, 0.1 μg/ml LPS for 4 hrs
Procedure: Mouse macrophage RAW264.7 cells were pre-incubated with or without the Cx43E2 antibody for 30 min followed by incubation with 0.1 μg/ml LPS for 4 hrs. RNA extracts were prepared and subjected to qRT-PCR analysis for COX2, Adamts4, MMP3/13 and IL6 mRNA expression. *P<0.05, **P<0.01.
(§3) RNA isolation and real-time PCR. Total RNA was isolated from RAW264.7 and SW982 cells using TRI Reagent (Molecular Research Center, Cincinnati, USA) according to the manufacturer's instructions. After RNA quantification by Nanodrop 2000, cDNA was synthesized from 1 μg of total RNA using the high-capacity RNA-to-cDNA kit (Thermo Fisher Scientific, Waltham, USA). […]
as §2

[5] = tested on: IL1β-induced inflammatory gene expression in SW982 cells; assay: qRT-PCR of IL1β-induced inflammatory gene expression in SW982 cells; assay type: cell-based, human; conditions: pre-incubated 30 min, 1 ng/ml IL1β for 14 hrs
Procedure: Human synovial fibroblast SW982 cells were pre-incubated with or without the Cx43E2 antibody for 30 min followed by incubation with 1 ng/ml IL1β for 14 hrs. RNA extracts were prepared and subjected to qRT-PCR analysis for COX2, Adamts4/5, MMP3/13 and NOS2 mRNA expression. *P<0.05, **P<0.01.
as §3, §2

CC1(C)[C@@H](OC(=O)CCC(=O)O)CC[C@]2(C)[C@H]3C(=O)C=C4[C@@H]5C[C@@](C)(C(=O)O)CC[C@]5(C)CC[C@@]4(C)[C@]3(C)CC[C@@H]12 [carbenoxolone, reference compound]
IL1β-induced increase of Cx43 hemichannel opening (EtBr dye uptake) ([1]; CBX 100 μM): abolished | LPS-induced increase of Cx43 hemichannel opening (EtBr dye uptake) ([2]; CBX 100 μM): abolished

B1: M1 antibody (anti-Cx43 hemichannel blocking antibody) (antibody, V domains shown)
VH: EVQLQQPGAELVKPGASVKLSCKASGYTFTSYYMYWVKQRPGQGLEWIGGINPSNGGTNFNEKFKNKATLTVDKSSSTAYMQLSSLTSEDSAVYYCTREGNPYYTMNYWGQGTSVTVSS
VL: DIVMTQSPSSLSVSAGEKVTMSCKSSQSLLNSGNQKTYLAWYQQKPGQPPKLLIYGASTRESGVPDRFTGSGSGTDFTLTISSVQAEDLAVYYCQNDHSYPFTFGSGTKLEIK
notes: also called HmAb1; anti-Cx43 hemichannel antibody
binding result [3]: binds

B2: Cx43E2 blocking antibody: Cx43 hemichannel blocking antibody used in RAW264.7 and SW982 cells; headings and legends call it anti-Cx43 hemichannel antibody (M1 antibody) (antibody, V domains shown)
VH: B1 VH
VL: B1 VL
IL1β-induced increase of Cx43 hemichannel opening (EtBr dye uptake) ([1]; antibody 2 μg/ml): abolished | LPS-induced increase of Cx43 hemichannel opening (EtBr dye uptake) ([2]; antibody 2 μg/ml): abolished | LPS-induced up-regulation of MMP3/13, COX2, Adamts4 and IL6 gene expression [4]: markedly decreased | MMP3/13, COX2, Adamts4/5 and NOS2 gene expression after IL1β treatment [5]: significantly reduced
